This experiment has as its target Phe-Pro-Ala-pNA.

With “Aspergillus niger tripeptidyl aminopeptidase (TPAP) (enzyme)”, the specific activity (release of pNA in the TPAP assay) stood at 27 µmol/min/mg.

These data come from patent US5821104.
